Measurements published in patent US20220220204A1 (NANJING GENSCRIPT BIOTECH, published 2022).

Target: human PD-L1 (PD-L1 aAPC/CHO-K1 cells) (human, UniProt Q9NZQ7 19-290)
Assay: cell-based or functional assay

human PD-L1 (PD-L1 aAPC/CHO-K1 cells), sequence (Q9NZQ7 19-290): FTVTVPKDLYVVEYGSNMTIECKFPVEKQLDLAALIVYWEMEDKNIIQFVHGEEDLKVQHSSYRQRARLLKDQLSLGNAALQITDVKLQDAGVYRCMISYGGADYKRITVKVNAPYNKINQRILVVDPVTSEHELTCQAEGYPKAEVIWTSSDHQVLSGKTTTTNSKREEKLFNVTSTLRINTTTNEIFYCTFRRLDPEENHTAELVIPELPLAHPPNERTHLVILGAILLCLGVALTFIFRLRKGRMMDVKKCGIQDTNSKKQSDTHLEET

Row | Binder | Bottom (PD-1/PD-L1 blockade bioassay) | Log EC50 (PD-1/PD-L1 blockade bioassay) | Top (PD-1/PD-L1 blockade bioassay)
1 | PDL1HCv1 (antibody, human IgG1, kappa, N297A, V domains shown) VH: EVQLVQSGAEVKKPGASVKVSCKASGYIFTGYGITWVRQAPGQGLEWMGEIFPRRVQTYYSEKFKGRVTMTTDTSTSTAYMELRSLRSDDTAVYYCARDYDPYFALDYWGQGTTVTVSS VL: DIQMTQSPSSLSASVGDRVTITCRASQDVSTAVDWYQQKPGKAPKLLIYSASYRYTGVPDRFSGSGSGTDFTFTISSLQPEDIATYYCQQHYSIPFTFGQGTKLEIKR | 28900 | -0.323 | 113000
2 | PDL1HCv5 (antibody, human IgG1, kappa, N297A, V domains shown) VH: EVQLVQSGAEVKKPGASVKVSCKASGYIFTGYGITWVRQAPGQGLEWMGEIFPRRVQTYYSEKFKGRVTMTADTSTSTAYMELRSLRSDDTAVYYCARDYDPYFALDYWGQGTTVTVSS VL: DIQMTQSPSSLSASVGDRVTITCRASQDVSTAVDWYQQKPGKAPKLLIYSASYRYTGVPDRFSGSGSGTDFTFTISSLQPEDIATYYCQQHYSIPFTFGQGTKLEIKR | 27800 | -0.111 | 110000
